Target: CD26 protein (recombinant human CD26) (human) (UniProt P27487)
Test: BLI (Octet QKe), CD26 amine-coupled on AR2G sensor, antibody at 181.8 nM

B1: 17G108 (anti-CD26-CD3 chimeric bispecific antibody derived from No. 160 mouse antibody) (bispecific antibody)
chain: DIVMTQAAPSVPVTPGESVSISCRSSKSLLHSNGNTYLYWFLQRPGQSPQLLISQMSNLASGIPDRFSGSGSGTAFTLRISRVEAEDVGVYYCMQHLEYPFTFGSGTKLEIKGGGGSGGGGSGGGGSEVQLQQSGAELVKPGASVKLSCTASGFNIKDNYMNWVKQRPEQGLEWIGRIDPANGNPKYDPKFQGKATITADTSSNTAYLQLSSLTSEDTAVYYCTRWIYYYGSRYEWYFDVWGAGTTVTVSSGGGGSDVQLVQSGAEVKKPGASVKVSCKASGYTFTRYTMHWVRQAPGQGLEWIGYINPSRGYTNYADSVKGRFTITTDKSTSTAYMELSSLRSEDTATYYCARYYDDHYCLDYWGQGTTVTVSSGGGGSGGGGSGGGGSDIVLTQSPATLSLSPGERATLSCRASQSVSYMNWYQQKPGKAPKRWIYDTSKVASGVPARFSGSGSGTDYSLTINSLEAEDAATYYCQQWSSNPLTFGGGTKVEIK
Response: 0.0395

— patent publication US20250179208A1
